10 molecules from US20220402985A1 can be followed below.

The target in test [1] is ErbB4 on neonatal rat cardiomyocytes (rat) (UniProt Q62956). The experiment in a line: cell-based or functional assay.
Test [2] has as its target ErbB3 on rat Schwann cells (rat) (UniProt Q62799). The test can be described thus: cell-based or functional assay.

Several values for one entry are separate records, joined by “and”; a condition that tells them apart may be missing. Equal values may be shown once. Where only a bound is given, the exact number is not on record here.

Chain of ErbB3 on rat Schwann cells (rat) (Q62799 20-1339): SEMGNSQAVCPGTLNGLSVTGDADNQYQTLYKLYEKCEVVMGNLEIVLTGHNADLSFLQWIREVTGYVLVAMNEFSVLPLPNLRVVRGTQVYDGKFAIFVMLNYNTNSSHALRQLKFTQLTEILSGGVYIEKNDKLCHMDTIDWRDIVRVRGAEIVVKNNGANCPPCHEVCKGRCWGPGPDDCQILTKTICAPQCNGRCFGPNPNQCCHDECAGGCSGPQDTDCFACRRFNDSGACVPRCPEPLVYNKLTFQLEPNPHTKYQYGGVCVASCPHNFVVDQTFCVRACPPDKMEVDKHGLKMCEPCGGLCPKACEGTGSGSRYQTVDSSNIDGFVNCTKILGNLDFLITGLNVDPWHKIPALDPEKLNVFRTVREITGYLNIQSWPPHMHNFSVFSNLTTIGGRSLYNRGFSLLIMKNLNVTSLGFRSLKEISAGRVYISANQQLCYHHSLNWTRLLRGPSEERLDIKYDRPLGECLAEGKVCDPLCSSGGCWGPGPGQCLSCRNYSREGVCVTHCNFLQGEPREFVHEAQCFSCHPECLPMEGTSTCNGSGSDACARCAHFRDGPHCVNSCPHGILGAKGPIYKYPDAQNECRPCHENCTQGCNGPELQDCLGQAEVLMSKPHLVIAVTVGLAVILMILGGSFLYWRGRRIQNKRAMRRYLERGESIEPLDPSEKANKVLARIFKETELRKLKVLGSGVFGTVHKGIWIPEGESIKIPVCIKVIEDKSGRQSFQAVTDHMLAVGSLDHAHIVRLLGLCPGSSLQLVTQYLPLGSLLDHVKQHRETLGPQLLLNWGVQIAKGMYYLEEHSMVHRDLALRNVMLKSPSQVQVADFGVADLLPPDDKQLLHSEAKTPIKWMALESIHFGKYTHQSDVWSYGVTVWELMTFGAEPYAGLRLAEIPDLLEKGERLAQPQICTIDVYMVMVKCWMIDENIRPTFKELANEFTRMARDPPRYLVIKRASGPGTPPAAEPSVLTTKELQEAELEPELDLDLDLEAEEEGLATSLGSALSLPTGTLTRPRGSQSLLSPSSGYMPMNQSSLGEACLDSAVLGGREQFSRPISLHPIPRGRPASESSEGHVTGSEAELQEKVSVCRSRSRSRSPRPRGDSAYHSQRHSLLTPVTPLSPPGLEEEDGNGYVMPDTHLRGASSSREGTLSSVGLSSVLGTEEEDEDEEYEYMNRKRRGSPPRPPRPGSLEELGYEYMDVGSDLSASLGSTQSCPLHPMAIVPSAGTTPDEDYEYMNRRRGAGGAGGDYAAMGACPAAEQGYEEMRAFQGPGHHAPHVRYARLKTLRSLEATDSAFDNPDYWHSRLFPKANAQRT
Chain of ErbB4 on neonatal rat cardiomyocytes (rat) (Q62956 26-1308): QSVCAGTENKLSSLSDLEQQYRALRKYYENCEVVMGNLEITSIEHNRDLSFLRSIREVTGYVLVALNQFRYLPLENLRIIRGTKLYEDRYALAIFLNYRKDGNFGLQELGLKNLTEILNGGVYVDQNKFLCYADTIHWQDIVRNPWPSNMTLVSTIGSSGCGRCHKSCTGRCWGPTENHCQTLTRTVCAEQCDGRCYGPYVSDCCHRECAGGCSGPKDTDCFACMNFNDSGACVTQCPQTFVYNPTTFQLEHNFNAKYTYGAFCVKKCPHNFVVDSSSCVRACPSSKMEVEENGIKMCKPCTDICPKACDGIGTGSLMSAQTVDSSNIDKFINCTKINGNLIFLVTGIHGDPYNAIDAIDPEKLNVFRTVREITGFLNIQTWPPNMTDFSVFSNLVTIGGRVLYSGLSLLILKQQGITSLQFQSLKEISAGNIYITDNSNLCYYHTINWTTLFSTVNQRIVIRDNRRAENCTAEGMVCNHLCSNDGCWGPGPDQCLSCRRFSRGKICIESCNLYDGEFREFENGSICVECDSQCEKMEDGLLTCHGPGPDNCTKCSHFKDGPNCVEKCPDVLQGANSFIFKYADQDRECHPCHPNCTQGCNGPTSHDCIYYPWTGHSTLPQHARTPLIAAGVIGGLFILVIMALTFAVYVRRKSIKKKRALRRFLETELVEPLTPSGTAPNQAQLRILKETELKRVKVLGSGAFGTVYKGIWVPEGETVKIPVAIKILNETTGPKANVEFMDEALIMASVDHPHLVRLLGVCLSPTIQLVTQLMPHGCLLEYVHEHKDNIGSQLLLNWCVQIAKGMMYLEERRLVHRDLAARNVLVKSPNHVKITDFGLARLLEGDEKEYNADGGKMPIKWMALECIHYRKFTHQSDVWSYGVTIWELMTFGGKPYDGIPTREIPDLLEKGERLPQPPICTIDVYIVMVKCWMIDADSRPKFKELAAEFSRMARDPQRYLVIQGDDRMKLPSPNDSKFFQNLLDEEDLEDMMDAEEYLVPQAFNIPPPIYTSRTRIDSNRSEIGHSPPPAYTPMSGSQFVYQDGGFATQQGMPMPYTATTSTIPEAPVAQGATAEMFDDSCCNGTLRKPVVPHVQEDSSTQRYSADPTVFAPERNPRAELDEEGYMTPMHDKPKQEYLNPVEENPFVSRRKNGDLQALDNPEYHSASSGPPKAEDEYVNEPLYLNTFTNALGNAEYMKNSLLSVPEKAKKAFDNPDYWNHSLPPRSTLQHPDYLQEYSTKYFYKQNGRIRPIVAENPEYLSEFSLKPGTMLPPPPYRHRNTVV

B1: huNRG1(S177-Q237)(NRGE1A)::GG::huFcSEFL2 (Pb) (Fc fusion)
chain: SHLVKCAENDKSFCVNGGECFMIEGPSNPSRYLCKCPNEFTGDRCQEDFMASFYKAEELYQGGDKTHTCPPCPAPELLGGPSVFLFPPKPKDTLMISRTPEVTCVVVDVSHEDPEVKFNWYVDGVEVHNAKTKPCEEQYGSTYRCVSVLTVLHQDWLNGKEYKCKVSNKALPAPIEKTISKAKGQPREPQVYTLPPSREEMTKNQVSLTCLVKGFYPSDIAVEWESNGQPENNYKTTPPVLDSDGSFFLYSKLTVDKSRWQQGNVFSCSVMHEALHNHYTQKSLSLSPGK
In test [1], B1 displayed a CM % Agonism AVG of 72%, a Cardiomyocyte (CM) (ErbB4) Avg EC50 of 1.84 nM and a Selectivity SC/CM above 5500. For the same molecule, the Schwann cells (SC) (ErbB3) Avg EC50 in test [2] is above 10000 nM.

B2: huNRG1(S177-Q237)(NRGE1B)::GG::huFcSEFL2 (Pb) (Fc fusion)
chain: SHLVKCGENDKSFCVNGGECYMVEGSSIPSRYLCKCPNEFTGDRCQEDFMASFYKAEELYQGGDKTHTCPPCPAPELLGGPSVFLFPPKPKDTLMISRTPEVTCVVVDVSHEDPEVKFNWYVDGVEVHNAKTKPCEEQYGSTYRCVSVLTVLHQDWLNGKEYKCKVSNKALPAPIEKTISKAKGQPREPQVYTLPPSREEMTKNQVSLTCLVKGFYPSDIAVEWESNGQPENNYKTTPPVLDSDGSFFLYSKLTVDKSRWQQGNVFSCSVMHEALHNHYTQKSLSLSPGK
In test [1], B2 registered a CM % Agonism AVG of 76%, a Cardiomyocyte (CM) (ErbB4) Avg EC50 of 1.48 nM and a Selectivity SC/CM above 6700. In test [2], this molecule registered a Schwann cells (SC) (ErbB3) Avg EC50 above 10000 nM.

B3: huNRG1(S177-Q237)(NRGE1I)::GG::huFcSEFL2 (Pb) (Fc fusion)
chain: SHLVKCGENDKSFCVNGGECFMIEGPSNPSRYLCKCPNEFTGDRCQDDFMASFYKAEELYQGGDKTHTCPPCPAPELLGGPSVFLFPPKPKDTLMISRTPEVTCVVVDVSHEDPEVKFNWYVDGVEVHNAKTKPCEEQYGSTYRCVSVLTVLHQDWLNGKEYKCKVSNKALPAPIEKTISKAKGQPREPQVYTLPPSREEMTKNQVSLTCLVKGFYPSDIAVEWESNGQPENNYKTTPPVLDSDGSFFLYSKLTVDKSRWQQGNVFSCSVMHEALHNHYTQKSLSLSPGK
In test [1], B3 gave a CM % Agonism AVG of 67%, a Cardiomyocyte (CM) (ErbB4) Avg EC50 of 22.9 nM and a Selectivity SC/CM of 437. This molecule displayed a Schwann cells (SC) (ErbB3) Avg EC50 in test [2] above 10000 nM.

B4: huNRG1(S177-Q237)(NRGE1C)::GG::huFcSEFL2 (Pb) (Fc fusion)
chain: SHLVKCGEKHKSFCVNGGECFMIEGPSNPSRYLCKCPNEFTGDRCQEDFMASFYKAEELYQGGDKTHTCPPCPAPELLGGPSVFLFPPKPKDTLMISRTPEVTCVVVDVSHEDPEVKFNWYVDGVEVHNAKTKPCEEQYGSTYRCVSVLTVLHQDWLNGKEYKCKVSNKALPAPIEKTISKAKGQPREPQVYTLPPSREEMTKNQVSLTCLVKGFYPSDIAVEWESNGQPENNYKTTPPVLDSDGSFFLYSKLTVDKSRWQQGNVFSCSVMHEALHNHYTQKSLSLSPGK
For B4, in test [1], the CM % Agonism AVG came to 82%; the Cardiomyocyte (CM) (ErbB4) Avg EC50 is 0.476 nM and 0.41 nM; the Selectivity SC/CM is above 10000. Besides, the Schwann cells (SC) (ErbB3) Avg EC50 in test [2] is above 10000 nM.

B5: huNRG1(S177-Q237)(NRGE1H)::GG::huFcSEFL2 (Pb) (Fc fusion)
chain: SHLVKCGESHKSFCVNGGECFMIEGPSNPSRYLCKCPNEFTGDRCQNDFMASFYKAEELYQGGDKTHTCPPCPAPELLGGPSVFLFPPKPKDTLMISRTPEVTCVVVDVSHEDPEVKFNWYVDGVEVHNAKTKPCEEQYGSTYRCVSVLTVLHQDWLNGKEYKCKVSNKALPAPIEKTISKAKGQPREPQVYTLPPSREEMTKNQVSLTCLVKGFYPSDIAVEWESNGQPENNYKTTPPVLDSDGSFFLYSKLTVDKSRWQQGNVFSCSVMHEALHNHYTQKSLSLSPGK
In test [1], B5 gave a CM % Agonism AVG of 88%, a Cardiomyocyte (CM) (ErbB4) Avg EC50 of 0.286 nM and a Selectivity SC/CM above 10000. In addition, the Schwann cells (SC) (ErbB3) Avg EC50 in test [2] is above 10000 nM.

B6: huNRG1(S177-Q237)(NRGE1D)::GG::huFcSEFL2 (Pb) (Fc fusion)
chain: SHLVKCGESHKSFCVNGGECYMVEGSSIPSRYLCKCPNEFTGDRCQEDFMASFYKAEELYQGGDKTHTCPPCPAPELLGGPSVFLFPPKPKDTLMISRTPEVTCVVVDVSHEDPEVKFNWYVDGVEVHNAKTKPCEEQYGSTYRCVSVLTVLHQDWLNGKEYKCKVSNKALPAPIEKTISKAKGQPREPQVYTLPPSREEMTKNQVSLTCLVKGFYPSDIAVEWESNGQPENNYKTTPPVLDSDGSFFLYSKLTVDKSRWQQGNVFSCSVMHEALHNHYTQKSLSLSPGK
As for B6, in test [1], the CM % Agonism AVG was 83%; the Cardiomyocyte (CM) (ErbB4) Avg EC50 is 0.303 nM and 0.33 nM; the Selectivity SC/CM was above 10000. In test [2], this molecule showed a Schwann cells (SC) (ErbB3) Avg EC50 above 10000 nM.

B7: huNRG1(S177-Q237)(NRGE1F)::GG::huFcSEFL2 (Pb) (Fc fusion)
chain: SHLVKCAENDKSFCVNGGECYMVEGSSIPSRYLCKCPNEFTGDRCQNDFMASFYKAEELYQGGDKTHTCPPCPAPELLGGPSVFLFPPKPKDTLMISRTPEVTCVVVDVSHEDPEVKFNWYVDGVEVHNAKTKPCEEQYGSTYRCVSVLTVLHQDWLNGKEYKCKVSNKALPAPIEKTISKAKGQPREPQVYTLPPSREEMTKNQVSLTCLVKGFYPSDIAVEWESNGQPENNYKTTPPVLDSDGSFFLYSKLTVDKSRWQQGNVFSCSVMHEALHNHYTQKSLSLSPGK
In test [1], B7 displayed a CM % Agonism AVG of 90%, a Cardiomyocyte (CM) (ErbB4) Avg EC50 of 0.65 nM and a Selectivity SC/CM above 10000. Also, the Schwann cells (SC) (ErbB3) Avg EC50 in test [2] is above 10000 nM.

B8: huNRG1(S177-Q237)(NRGE1G)::GG::huFcSEFL2 (Pb) (Fc fusion)
chain: SHLVKCGEKHKSFCVNGGECYMVEGSSIPSRYLCKCPNEFTGDRCQNDFMASFYKAEELYQGGDKTHTCPPCPAPELLGGPSVFLFPPKPKDTLMISRTPEVTCVVVDVSHEDPEVKFNWYVDGVEVHNAKTKPCEEQYGSTYRCVSVLTVLHQDWLNGKEYKCKVSNKALPAPIEKTISKAKGQPREPQVYTLPPSREEMTKNQVSLTCLVKGFYPSDIAVEWESNGQPENNYKTTPPVLDSDGSFFLYSKLTVDKSRWQQGNVFSCSVMHEALHNHYTQKSLSLSPGK
Take B8: in test [1], the CM % Agonism AVG was determined as 84%, the Cardiomyocyte (CM) (ErbB4) Avg EC50 is 0.218 nM and the Selectivity SC/CM was above 10000. Moreover, the Schwann cells (SC) (ErbB3) Avg EC50 in test [2] was above 10000 nM.

B9: huNRG1(S177-Q237)(NRGE1E)::GG::huFcSEFL2 (Pb) (Fc fusion)
chain: SHLVKCGENDKSFCVNGGECFMIEGPSNPSRYLCKCPNEFTGDRCQNDFMASFYKAEELYQGGDKTHTCPPCPAPELLGGPSVFLFPPKPKDTLMISRTPEVTCVVVDVSHEDPEVKFNWYVDGVEVHNAKTKPCEEQYGSTYRCVSVLTVLHQDWLNGKEYKCKVSNKALPAPIEKTISKAKGQPREPQVYTLPPSREEMTKNQVSLTCLVKGFYPSDIAVEWESNGQPENNYKTTPPVLDSDGSFFLYSKLTVDKSRWQQGNVFSCSVMHEALHNHYTQKSLSLSPGK
Regarding B9, in test [1], the CM % Agonism AVG came to 83%, the Cardiomyocyte (CM) (ErbB4) Avg EC50 is 0.995 nM and the Selectivity SC/CM was above 10000. Besides, in test [2], the Schwann cells (SC) (ErbB3) Avg EC50 was above 10000 nM.

B10: huNRG1(S177-Q237)(NRGE1J)::GG::huFcSEFL2 (Pb) (Fc fusion)
chain: SHLVKCGENDKSFCVNGGECYMVEGSSIPSRYLCKCPNEFTGDRCQDDFMASFYKAEELYQGGDKTHTCPPCPAPELLGGPSVFLFPPKPKDTLMISRTPEVTCVVVDVSHEDPEVKFNWYVDGVEVHNAKTKPCEEQYGSTYRCVSVLTVLHQDWLNGKEYKCKVSNKALPAPIEKTISKAKGQPREPQVYTLPPSREEMTKNQVSLTCLVKGFYPSDIAVEWESNGQPENNYKTTPPVLDSDGSFFLYSKLTVDKSRWQQGNVFSCSVMHEALHNHYTQKSLSLSPGK
With B10, in test [1], the CM % Agonism AVG is 68%, the Cardiomyocyte (CM) (ErbB4) Avg EC50 was 14.1 nM and the Selectivity SC/CM came to 710. Also, the Schwann cells (SC) (ErbB3) Avg EC50 in test [2] was above 10000 nM.
